Test results: the NTF2 design screens of Basanta et al. (2020)

Experiment: protease stability score; higher = more stable; yeast display proteolysis, trypsin and chymotrypsin;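 also: log10 excess protease needed over predicted unfolded state with 0 meaning unfolded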

Sequence	protease stability score
DEDDANQVERDLRENDWDQLVRNFDEDARIQIGDYTIHGREDYKRWLEEVEKQVDKVEIKQVDIHGNNIVVDYRQQVNGQHVRAIMVITMDNGKIKEMHVDVRSEDAKRAYERIFR	0.525
DEDDANRVAQEILRALIEGDEKKVADLVDEDARISIGDHKFRGREQIREAVREFTEEVDHVKLESITADNGHAEATAILDINGKNQRVTFHVEVHNGRAKEVSMTSG	1.05
DEDDARKVRKLAKTNDWDELVHRFRDDVRFKVGNQRYSGRENAQTVAQELRKKVDHIRITSLHSTPGHVVLHMTMVVNGRKITVVIFIRMDNGRAVSFSLRVRDEEVKKHITQAFS	0.141
DEDDERQMEEVVETGDPDRMAENADPNVRVDVGDHEVHGRERAQKMWQQEKKQVDHLEVKEVHTENGRINADVVVVVNGRSLQVTVVASMHNGKIEYYSIQFTSEKQKKQWHDANG	-0.048
DEDDKQEFAKSYNEVWKTGNEENAKRLFDENARMRVGDKEFHGHESIAHFLAEQVKRIDHIEFKQVDVQGEDMVFVFHFTVDGRKVHMTVKLRIHNGRIKDATINPQDIKKMEK	0.603
DEDDKQRHAEKYAKLWQEGNEDELQKQMDPNAKVVVGEKRLKGREQIKKWLEEWRKHADEVQVISVSVEGERLVIRFRANINGKTYHDTQTMIYDNGEIQDVRFDPKWLHDLKR	0.625
DEDDLERKDEEFQRLMKTGNFEELAQQADKDVRVQIGDKQLHGRRQIKKYQEEMQRKADHFDVKRVDIQGDTVDAVIENRHNGHHQVVRIQVNMHNGTIKEVTIHSS	-0.02
DEDDLETLLKKIIDAMRNGDPKQMMRLVDENAKLVVGDKTVHGREEVSKWMKELRRQVDDNDYKDFHVQGDKARIDHFVNINGTNTERVIDIEVHNGRVKRLVYHEK	0.159
DEDDLQRKVERINSALQTNDEDEFVRQLDEDAKISVGDKTVHGQEKAREWVQDLRRTVDHIRVDHVKVHNGRAHVTMKAVVNGKNVEITMQMTLHNGKVKEMRIDPEDVEKLEG	0.807
DEDDLRHVEKVLRENDEDTFAEMADEDVSADIGDKTLTGREEVKKMLQKLHKQADHVEIKSVTNRGDNVKVDMVMNYNGRNLRFSRSAEFTNGRIKHVSIRVTSEEDQDVLQRLLD	0.811
DEDDLRRAQKDLQQNDFHKIARDADENVRVRIGDTTYHGRETLISFLKEMQDRADHVSIKHISVEGDKITADFEMQVDGKTDTFDLFIVVHNGRYQHVHFEVRSEDFSKFMREIES	1.02
DEDDLRRIIKEFQKALKTGDTDEIRRQIDPNAHARYGDKEVHGREQLLSRLDELMNNVDHMQIDDLTFRGDKATVDFVMNHNGHERRHILHMVVHNGTIKSAHLDDS	1.01
DEDDLRRLAEDFVRVLKTGDEDRLSELFDPNAKVSVGDHEYHGSENIVRALVEFARRVDELEVNSITIENGRVKIDAFATVNGKRVSVIIEIQYHNGRAKYVEFKYTSEEENRRFKN	0.466
DEDDLRRRANEVAEVLHDNDEESMKSLVDPNADIEIGDKRLHGRDDMEKWMQERKRRVDHLTLHSFNVHNGRVDIDARVEVNGQQERYRMVVEFHNGVAKHINFTST	0.569
DEDDLVRQMVDRAEEAAQTGDEKKFANLFDPNARFRYGDKDVHGREEWEKRLDEERKRADRLHIKFDSVRVHGDKVDLHFTWRVVVNGESSERVVIIHAVKQGDRIVAKYVREG	0.611
DEDDMRKWEELMRAFETGDEKKATELVDPNATFKVGDKTYHGREHFIKDLFTKVKEIHIQMRIRDIQQSGDFAVVHLVKSNHNNGKPNSDVAVVLVRMDNGKLKYVQETKDQ	0.587
DEDDMRRLEQLFRDIQTGNPERVRTLVDKNAELRVGDKRIKGREDVHRSVKKNRDEIRYSIDRLSADVKGDQVEMTVTAQKEHNGEPRSFKFTMTAKFRNGKLQHLDVHEEK	-0.297
DEDDNKIAKEWYKAIQRGDPDRVKQLVDPNVKIRIGDKDIRGRENFATEVERMRDEIEVVFKVKDMKDQGDKANVEYEYQTQSNGRPRTKSQTVNVSMHNGHVKHVNVRDDQ	-0.301

Sequence	protease stability score
DEDDNRKMHKLMETGDFEKIAHHADPNAHAKYGDKTVTGKEELKSVFTKFNRAVDHVQVQDVRIRGDKVTLDAEVNVNGQTVQVTVSARAHNGQIKHFKIQARDEQIQRDIKDALE	0.845
DEDDQERKLRKIAKNITKGDKTSLLKMVDKDAKASVGDKTVEGDNQLKRVMEERTRRIDHLDLKDVKVTGNTLVVHYVIHHNGKNKHQVAFVVLDNGRIKSMSFHDG	-0.08
DEDDQKLITEFLKALERGDPDRLLENADPNASARVGDKDVHGMHNAATDWVRERNSMDVTYDSVEIHVHNGRATIHLDAQFDFNGKPWRDTMTVEIVIRNGKIKDIIFRFDEQQLRDITK	0.714
DEDDQKNFSQMLNALDTGDEKRVVELADPNAKVEYGDKTYSGMEKYAHDRAKQRKEWRYHQTIDKVNVKNGRVEIHMKANFKINGQPRSMRFSVTVEAHNGKLKNLDFRFSEEDRKKLEG	-0.024
DEDDQLRKLLEEIVDALDRGNESELRNLMDKDVRVDVGDKTITGRENAAEFLIRLANEADEIDINITDLKVDNGNISLRFQLHLHHNGRNVTRQVTIVIDRKGDELKVKYIRMS	0.031
DEDDQRRKAETLVRQISTGNPDDLKKMVDPNVKVKVGDKEYHGREEMAKDIKHIEDAVDHLEVKSVDAHNGRIDIVIVMHINGTRVHMRVEFQLNNGKVKSAERRYTDQDQKNTFER	-0.39
DEDDQVRKILETQDRAMRTGDEDTYVNQADKDVRVKVGDKKLRGREEWKKEVTRIIERVDHFDVHIDHIDHQGDKIVIRQVIVLEHDGRRDSKTYNMTARNKNGRVKWKEVTEK	-0.205
DEDDRKRVAKEFMDNLNTGNEDEALKLADKDARLRYGDKTLHGREQIKDWLHTLRERIDSIEVHRIEVQGDKVRVRASVVINGKEEMVDINFRMSNGRLEKVTFDPRLDEMLKG	1.44
DEDDRRRQARKLASALVTGNHQEVRELADKDVHAEYGDRRYRGREKLDEAAKDMHKQADSLTVRDVKFTGDKVNIDLQLNINGRRLTVSLTAQLENGRFKEIVVQVTDPETLRHVKQ	-0.03
DEDDVDRVRNLIHALNKGNPDDVNNQADENVRFVIGDKTFHGKETLRTRIEEQKSHSRYQVDSVHAEARNGQVEVHVNMTMTENGQPRKNTYEIQARVHNGRVKDFRMTESR	-0.336
DEDDVNKAHNILKHGDWEKFASQADENVRIHIGNKEVNGRERASEVLKLIRDRVDSEEIKRMSFHGDKVVVDAEQVVNGKKVRFVIRVKAHNGRIKQMDFQFRNEEDKKKFDEAVN	0.477
DEDDVQHAQKLVEENDEDKLKRMFPPDARAHIGDKEVHGMDKWADILKTLHHKADSVHFKHVSVSGNSVNVNFVMVVDGQSIEFVLVIDVHNGRARRLRIDFRNEEQQKLFEKLIS	1.3
DEDDVRRVAEQIVQALEKGDEQRMMELADPNAKARVGEKDYHGREDLHKIVKELKDDFDHARVESVEVDGDKVVIHMVVKSNGKDRRMIIRFRVHNGKVTEMEFRTG	1.75
DEDDVRRVHEMIRAEETNNEHQVKDLMDENARMVVGDQEITGMDHILKFIRETNKEIDIELRLRDVKVSNGNVHVTARVRFTVNGKPVDRSAKMEVQVENGRIQDVQKRFPTEWKRERHK	-0.03
DEDDWKKFMKFLKNLRNGDDEQAAKQADPNARFEYGDETIHGREHFRKHVKDTKDHARYSFNLKDYRVTPGRIEARMDVHSMENGRPDSNDVVLILSLSNGRIKKVEMKQVS	0.063
DEDDWRKRMKKVVEVLRTGNPDTMVDMVDENAKAKYGDKEYHGREQIHKWMEDRQKRYDHVNVKHMHIQGNKVNISAVYVVNGRSEDRQLQVVFDNGKIKSMRVTEQ	-0.053
DEDEARKVMKKWQEVVQKGDPDDVRKLYKPNVKWEAADTRRQGVDVVVEQMKKVQDKGVEFQVRKAKVEGDRFQVVYDVKLGNDTATFTVQVEARGGQIDEVRAKVDEKAYKVMKKG	0.123
DEDEARTWANRMRKIIKEGDPKKMRHQLDKDAKAQVGDDTVHGRDKVVQLLQHILEHVDHVEIQHVEAQGNEVDIQVKLTVNGRDDSLKFDIKYHNGRVKTIRVQEQ	-0.084
